Common to all, as to details: both partners purified
The target in assay [1] is T1, MHCI-related protein 1 (MR1) with β2m, loaded with 5-(2-oxopropylideneamino)-6-d-ribitylaminouracil (human, UniProt Q95460 23-302; P61769 21-119, biotin on the Avi-tag (BirA ligase)).
T1 construct: MR1 heavy chain, human; beta-2 microglobulin; Small-molecule cargo: 5-OP-RU; Same protein chains as Dm12 and Dm13; they differ in the cargo only; also called MR1-5OPRU; not shown: Avi-tag, C-terminal, kept
The assay can be described thus: SPR; BIAcore T200, CM5 chip with streptavidin; biotinylated pMHCI, MR1 or CD1 captured; serial dilution of CD8-Fc fusion injected; 25°C, PBS with 0.005% Tween 20; steady-state responses, 1:1 Langmuir fit. (Surface plasmon resonance follows binding to a sensor surface in real time, without labels.)

The target in assay [2] is T2, MHCI-related protein 1 (MR1) with β2m, loaded with 6-formylpterin (human, UniProt Q95460 23-302; P61769 21-119, biotin on the Avi-tag (BirA ligase)).
T2 construct: MR1 heavy chain, human; beta-2 microglobulin; Small-molecule cargo: 6-formylpterin; Same protein chains as Dm11 and Dm13; they differ in the cargo only; also called MR1-6FP; not shown: Avi-tag, C-terminal, kept
Described as above.

For assay [3], the target named is T3, MHCI-related protein 1 (MR1) with β2m, loaded with 5-formyl salicylic acid (human, UniProt Q95460 23-302; P61769 21-119, biotin on the Avi-tag (BirA ligase)).
T3 construct: MR1 heavy chain, human; beta-2 microglobulin; Small-molecule cargo: 5-formyl salicylic acid; Same protein chains as Dm11 and Dm12; they differ in the cargo only; also called MR1-5FSA; not shown: Avi-tag, C-terminal, kept
The assay is described as above.

In assay [4] the target is HLA-A*01:01 with peptide … (human | , biotin on the Avi-tag (BirA ligase)). The assay is described as above.
The target of assay [5] is HLA-A*02:01 with peptide … (human | , biotin on the Avi-tag (BirA ligase)). The description is as above.
The target is the same in assay [6]. The assay is described as above. This is another data set of the same source.
Assay [7] deals with HLA-A*03:01 with peptide … (human | , biotin on the Avi-tag (BirA ligase)). The assay is described as above.
Assay [8] addresses HLA-A*01:01 peptide-MHC class I (biotinylated pMHCI) (human | , biotin on the Avi-tag (BirA ligase)). The assay can be described thus: SPR; biotinylated ligands (pMHCI, MR1, CD1) captured on streptavidin coupled to a CM5 chip; serial dilution of each CD8-Fc fusion injected; steady-state responses, 1:1 Langmuir fit; BIAcore T200, 25°C, PBS with 0.005% Tween 20.
Assay [9] concerns the target HLA-A*02:01 peptide-MHC class I (biotinylated pMHCI) (human | , biotin on the Avi-tag (BirA ligase)). The assay is described as above.
Assay [10] addresses T4, MHCI-related protein 1 (MR1) with β-2 microglobulin, biotinylated, loaded with model ligands (human | , UniProt Q95460 23-292; P61769 21-119, biotin on the Avi-tag (BirA ligase)).
T4 construct: MR1 heavy chain, human; β-2 microglobulin; Small-molecule cargoes: 5-(2-oxopropylideneamino)-6-d-ribitylaminouracil, 6-formylpterin, 5-formyl salicylic acid; not shown: Avi-tag, C-terminal, kept
Described as above.

“And” between values parts separate entries of the source, which are not always exact repeats. Equal entries are not always repeated.

The Kd is the concentration at which binding is half-saturated. High values mean lower affinity, low ones higher affinity.

B1: soluble human CD8αβ-Fc heterodimer (Fc fusion)
chain 1: not shown
chain 2: LQQTPAYIKVQTNKMVMLSCEAKISLSNMRIYWLRQRQAPSSDSHHEFLALWDSAKGTIHGEEVEQEKIAVFRDASRFILNLTSVKPEDSGIYFCMIVGSPELTFGKGTQLSVVDFLPTTAQPTKKSTLKKRVCRLPRPETQKGPLCSP
notes: CD8 alpha extracellular domain, human, Uniprot P01732, residues 22-182; CD8 beta extracellular domain, human, Uniprot P10966, residues 22-170; Cloned in pFUSE-hIgG1e3 behind a mouse kappa light-chain secretion signal; source: ExpiCHO, purified (protein A, gel filtration); copies: 1 + 1
As for B1, the Kd is 228 µM and 233 µM in assay [1]; 250 µM and 220 µM in assay [2]; 267 µM and 285 µM in assay [3]; 101 µM in assay [4]; 238 µM in assay [5]; 255 µM and 244 µM in assay [6]. The molecule also gave a Kd in assay [7] of 147 µM.

B2: soluble human CD8αβ-Fc heterodimer (Fc fusion)
chain 1: not shown
chain 2: LQQTPAYIKVQTNKMVMLSCEAKISLSNMRIYWLRQRQAPSSDSHHEFLALWDSAKGTIHGEEVEQEKIAVFRDASRFILNLTSVKPEDSGIYFCMIVGSPELTFGKGTQLSVVDFLPTTAQPTKKSTLKKRVCRLPRPETQKGPLCSP
notes: CD8α extracellular domain, human, Uniprot P01732, residues 22-182; CD8β extracellular domain, human, Uniprot P10966, residues 22-170; Cloned into pFUSE-hIgG1e3 downstream of a mouse kappa light-chain secretion signal, subcloned into pcDNA3.1; source: ExpiCHO, purified (protein A, gel filtration on Superdex 200); copies: 1 + 1
As for B2, the Kd in assay [8] is 107 µM; in assay [9], 189 µM and ~230 µM; in assay [10] it was ~250 µM.

The values are drawn from PMC11739670 (European Journal of Immunology, 2024).
